Data from PMC2950884 (Nature structural & molecular biology, 2010).
Substitutions are numbered along the chain they refer to. Names and notes keep the numbering of the source.

Key:
[1] = biological target: Pcf11 CTD-interacting domain (S. cerevisiae) (UniProt P39081); assay: NMR titration
[2] = biological target: Rtt103 CTD-interacting domain (residues 1-131) (S. cerevisiae) (UniProt Q05543); assay: NMR titration
[3] = biological target: Pcf11-CID (N107R) (S. cerevisiae) (UniProt P39081); assay: NMR titration
AUC = biological target: the molecule itself; assay: AUC
[4] = biological target: Ser2abP-CTD diheptad repeat peptide (phosphorylated at both Ser2 positions); assay: fluorescence polarisation
[5] = biological target: Ser2abP/Ser5abP-CTD diheptad repeat peptide; assay: fluorescence polarisation
[6] = biological target: four heptad repeat Ser2P CTD peptide; assay: fluorescence polarisation
ADH1 gene = assay: ChIP of TAP tagged proteins, 3′-end recruitment; format: cell-based, yeast
PMA1 gene = assay: ChIP of TAP tagged proteins, 3′-end recruitment; format: cell-based, yeast
[7] = biological target: Ser5abP-CTD diheptad repeat peptide; assay: fluorescence polarisation
[8] = biological target: four heptad repeat Ser2P CTD peptide; assay: NMR relaxation
[9] = untagged wild-type Pcf11 present

Work on Ser2bP-CTD diheptad repeat peptide yielded a Kd [1] of 240 µM and a Kd [2] of 76 µM.

With Ser5abP-CTD diheptad repeat peptide the Kd [1] was 1200 µM.

Molecule “Ser2abP-CTD diheptad repeat peptide (phosphorylated at both Ser2 positions)” has a Kd [1] of 160 µM, a Kd [3] of 24 µM and a Kd [2] of 15 µM.

For “Ser2abP/Ser5abP-CTD diheptad repeat peptide”, the Kd [1] was 630 µM and the Kd [2] was 41 µM.

Work on Ser2aP-CTD diheptad repeat peptide yielded a Kd [1] of 1400 µM and a Kd [2] of 420 µM.

B1: Pcf11 CTD-interacting domain (domain or fragment, S. cerevisiae, UniProt P39081 4-139, looked up)
chain: DTEVIVKDFNSILEELTFNSRPIITTLTKLAEENISCAQYFVDAIESRIEKCMPKQKLYAFYALDSICKNVGSPYTIYFSRNLFNLYKRTYLLVDNTTRTKLINMFKLWLNPNDTGLPLFEGSALEKIEQFLIKAS
In the case of B1, the “stoichiometry N” value (AUC) is reported as 2, the Kd [4] is reported as 130 µM and the Kd [5] is reported as 370 µM. The Kd1 (first binding event) [6] was 50 µM and the Kd2 (second binding event) [6] was 140 µM.

B2: Pcf11(D117K)-CID (domain or fragment)
chain: B1 chain with D114K
Molecule B2 has a Kd1 (first binding event) [6] of 30 µM and a Kd2 (second binding event) [6] of 130 µM.

B3: Pcf11(D117A)-CID (domain or fragment)
chain: B1 chain with D114A
B3 showed a Kd1 (first binding event) [6] of 40 µM and a Kd2 (second binding event) [6] of 430 µM.

B4: Pcf11-CID (N107R): Pcf11 with arginine in place of Asn107; CID in vitro, TAP tagged protein in ChIP (protein)
chain: B1 chain with N104R
With B4 the “Increase of 3′-end recruitment compared with wild type Pcf11-TAP (factor)” value (ADH1 gene; [9]) was greater than 2 and the “Increase of 3′-end recruitment compared with wild type Pcf11-TAP (factor)” value (PMA1 gene; [9]) was greater than 2.

B5: Rtt103 CTD-interacting domain (residues 1-131) (domain or fragment)
chain: MPFSSEQFTTKLNTLEDSQESISSASKWLLLQYRDAPKVAEMWKEYMLRPSVNTRRKLLGLYLMNHVVQQAKGQKIIQFQDSFGKVAAEVLGRINQEFPRDLKKKLSRVVNILKERNIFSKQVVNDIERSL
B5 gave a Kd [4] of 2.1 µM, a Kd [5] of 53 µM and a Kd [7] of 122 µM. It also gave a Kd1 (first binding event) [6] of 3 µM, a Kd2 (second binding event) [6] of 20 µM and a stoichiometry N (proteins per peptide) [8] of 2.

B6: Rtt103(E115R)-CID (domain or fragment)
chain: B5 chain with E115R
Molecule B6 has a Kd1 (first binding event) [6] of 1.8 µM, a Kd2 (second binding event) [6] greater than 1000 µM and a stoichiometry N (protein per peptide) [8] of 1.

B7: Rtt103-CID (R108N) (domain or fragment)
chain: B5 chain with R108N
B7 was tested, and the “Reduction of 3′-end recruitment compared with wild type (factor)” value (ADH1 gene) was 5, the Kd [4] was 100 µM and the “Reduction of 3′-end recruitment compared with wild type (factor)” value (PMA1 gene) was 8.
